Assay results: the DeepSol protein solubility set

Test: soluble on expression in E. coli; label from the status in PepcDB or PDB records

Row | Sequence | soluble on expression in E. coli
1 | GMYNPVGVAAIGLGRWAYVMADAYTKSEKLKLVTCYSRTEDKREKFGKRYNCAGDATMEALLAREDVEMVIITVPNDKHAEVIEQCARSGKHIYVEKPISVSLDHAQRIDQVIKETGVKFLCGHSSRRLGALRKMKEMIDTKEIGEVSSIEAVFSNERGLELKKGNWRGEPATAPGGPLTQLGVHQIDNLQFLLGPVARVFNFGKPMYTEVENITVNQTLLEFEDGKQAYLGTNWACPGVFSINVYGTKANLFYQLDFSWWSNSDVTDEHSTLIKREFASMSDDPDNRILRDVKVDFESVDHLRVEVEEVADVIRNGGETEIGAEASLRNLAVVLAAVKSVHEKRPVEIAEIIG | soluble
2 | GPAIAENLYFQSPQLNGGGGDDLGANDELISFKDEGEQEEKSSENSSAERDLADVKSSLVNESETNQNSSSDSEAERRPPPRSESFRDKSRESLEEAAKRQDGGLFKGPPYPGYPFIMIPDLTSPYLPNGSLSPTARTYLQMKWPLLDVQAGSLQSRQALKDARSPSPAHIVSNKVPVVQHPHHVHPLTPLITYSNEHFTPGNPPPHLPADVDPKTGIPRPPHPPDISPYYPLSPGTVGQIPHPLGWQGQPVYPITTGGFRHPYPTALTVNASMSRFPPHMVPPHHTLHTTGIPHPAIVTPTVKQESSQSDVGSLHSSKHQDSKKEEEKKKPHIKKPLNAFMLYMKEMRAKVVAECTLKESAAINQILGRRWHALSREEQAKYYELARKERQLHMQLYPGWSARDNYGKKKKRKRDKQPGETNEHSECFLNPCLSLPPITGEKKSAFATYKVKAAASAHPLQMEAY | soluble
3 | GPGSDVFFSGYLNKLKGGDNHSWKKRYLQVQKGHFIMSDKESDTEGKALSLEHIQSVCPVPVSTAKREHVFALHTTSGKSMWFEAASLENMEEWIHAIQCGLGVA | soluble
4 | GPGSMALPRLQMFALASRIEELVLDSVTVHPHSVVAIGNAERQGNGQPPPPSNWVPLSDLASLQKLRRLDMTNCKGDFDCAGIARCCFLRSVHLSGCNVKDADVPHLAQLPCVEELLLSRTRITNVQALAAGKGLRIIQLSNAQVDSDGIDGLQTLPYLTRLDLSSTLVSDVNCLGQSQSLIYLNLAKTHVTSEGIAGLSRLLTLEHLMLNNNNIRDVSFLAESHSLKTLSLQSTLVDSAGLEGLGRLRTLQDLSLAHTRVTNVTKLQHCRNLWRLDLQGSFVDQAGIVGLERLPKLRVLVLSKTDVASLELILKSESLEQLEVKFSHVNERSAFFGVTKASALTDVTLTHCDVSDINNLGMCKELRLLNVWSSKVTSEGIAGLCDARSLQEVDLAETAVTDISPLLSCTKIQALILYRSSVRSLDGIGALQQLRRLDIAETSVSSIRSLSACQRLEILNLSNTAVDDDGFQGIGQAQSLKVVSMSFTAITQVGQLGQCSHLEELHAQSCPVTSEGLVGLERACCLVKLNLSYTKLQSGIQRLTNCRKLLKLNVKFTEVPYDEVAYVKRHLPSCRVMNDAAQRMAKDVTLLT | not soluble
5 | GPGSMALVADVPPPTATSMAKLFQESSFDPVTTFEAVWLPPRVPAAPPTAGASEPVPFAAVVDVLADISATGSRLECLKQLTFLLLAVIERCPEDLVPVMYLVINKHAPQHEGVELGIGDAVLVKAVAECCGMTETRAKEEYRQSGDLAEIAQMHKQKQGTLMKPKPLSARSVFKTYKEIAMMSGRDVMRRRSDLIKGLLRDAQGPEVNLIVRGLQQKMRIGLAEPSALAAVGYAFALHFLGGAQMHKMDEVQLQTLLNTGADSLARIFYEVPSLDVVLSAVLANGFMTLVPGSSIAKQYAKDLSIRPGLPVKPQLAYPTSSITVILDRLQGKKFTSEYKYDGERAQIHYDKDKGFHIFSRNSETHTGKYPDVISMLPKVFDPVEVQSFILDSEVVAVHSETGALQAFQVLQHRGRKNIAEEDVSIPVCVFVFDILYFNGEPQLNKTLQQRRELLWRCIHPLPAKLSFATHLDSEKVEDVQTFLERSIADGCEGLMVKTLEEEANYTPAKRSHYWLKLKKDYMDGVTDTLDLVPIAAFYGKGKRTGVFGGFLLACYDPKADEYQSICKIGTGFQDEELEKLTQSLKPFVVDEKPRYYRAGGEEPDVWLTEAQVWEVKAADLSVSPVHQAAVGLVDPDKGIALRFPRYLRQREDKKPADATNARQVADMYKAQSLAAEHDANGDAE | not soluble
6 | GPGSMDRSVAESIRQQSDDLRDELKELEQWEDAMQAREMAKAQRKVPLPTSVAAAEPPIRGTVPSLKEAIRQQQQQARATGTSGDTAAEAIADPIQQAKDKGNVLFQSGHLQEAVAAYTVGIDLDPASATTHVLYANRAMCYLKLGQWTAAEKDATTCVHMNTGYAKAYYRRAVARKQLGKLREARADLEAVLALAPKDVSAQQEMESVTKALQAKRAAESQATTTATTTKKKRIVIEEVDSEGDEAAAEAPATSASKLSTEEEELHQACIEEDMRRLAAARKANEEQVRQEAQREAAAQAKRQRRHERVEIIEEAEHSPAEKKKMAPSPATSSPVVEQTPPLSTSSPPSSSSPSPTSAATRPRARPPIAKESLTAPKSFSEFERRFRELVQQPDLRDHYVRLLDPATMAKLFGSNMSPEMLLGILQAIKTFNATTALQYAKGLCQVSRVEDVALFFDAQEKAVVQDVLDLLRSAPGTPAKDIQQIERKLKPL | soluble
7 | GPGSMDSMCTFIIRPPRSTYEIADLGPGVFRIGDDCTERFMRHDFELENMRGLRFQCSWFKPYPARRVPCVVYCHANCGGRYDGLEALFLLQEGFSLFCFDFCGSGMSEGEYISLGFYERQDLVAIVEFLSLKSDEVDGVALWGRSMGAVATIMYASKGSIRGFVVLFAIRPSHPCGCSSTIWWSDMVGERPGFCQRFWCTGLWSASVSAS | not soluble
8 | GPGSMERAATQSQSIYSNANTNSSNVNTYGNTVSSYLSNNSPNAVMYGGGNSGNGGAPSSTSVATVYASPTQASPSQAIRQQAQGAAQQNMSQSQTSTSFNAYGGGAASGSGSGFFYSTPSAQAPGAQTMYSANPSAAAMFPMRGGSTSMTPAQPTPTQMLTPQANAAAAAAAVWTNAAANINAGSKLFVGQVPAVCTEDQLRPLFAQFGTLLEIKIMREPNGRSKGSAWVRYELEESAQRAITALNEKHVVPPQTNPLRVQFAAPSTNRIPQPLSALGSIMPPSAVMQPQPQPNYATAATYATPQGYAGTTTAYMQGQYATSPNLMAVRASPQQQAAVQSASGKIEYLRSNHPGSLIYSTASPTAVDAMQQQQQQQSPQQQQVVYTTGGQMRAGVMYTPDAFAMTNQMAAAPQQPHQWCS | soluble
9 | GPGSMFSCCLRSLARGREPQVLGTAVPSFYNFPYRAQDVLHLYRDLLKLIYQHPPQERADLLFRLRNEFHSRRHLSAPKLISAAIRRGEGILNVQRGLMESRSVRARAVASRERGAQSVDGLWDQLQIVSGHMLPGLRNFSASRGLSRGSYVRQATTQAVYSRRK | not soluble
10 | GPGSMFVSDNDDYLPEPQAPGDHHMHEERLRRLEENFALLLNQRSVGNASGPKESTPKARVTAVAADVQAADERSLKLTYELRELVPHLSPGFDCCSADALLLLSAIRNGSHGRGCESWEDRLAVVKAEKRSLHHQLEKKAQECEELKNAVAEMKQRLKAERQEALSSVNVLSQRREQVRKQLLLEESRSQKLQVRNGQLESELERLKDMLHSCMRR | not soluble
11 | GPGSMFYKMKLERNIKVEPHLLERTLHRHLEEYLRKAVEGTPLHLSLGNALRSGLARTNQNSSAVIIAVLDILNTSSLEGRVLDDGSVSFFVKYEGLVFKLHRGEVIDVIVSSVEREGWWGDVMGVGRMYISRGQMGNEWVYESDGMRGIWITKDGARSVKEGEIVRVRVVAETPQSEGVLAVGSMVGNYLGPL | not soluble
12 | GPGSMGVDLTGISKKSRVIRHHTYSTNPYIKLLIKLYKFLAKRTSSGFNKVVYQRLIKSRSNRAPISLSRIAVVMKRKAVFTAKSKAAPIAVVVGDVLDDVRMARIPAMRVCALRFSKSARQSIVAAGGECLTFDQLAMIAPTGKNTYLLRGRKSGRESVRHFGASGVPGSHSKPYATNRGKETKRGRRTGRSYKRKAFRHV | soluble
13 | GPGSMHLDEMLKEIQDMQEKNWTAVERTDIILAKLCAFLDKLAHSLRFMATSQPSCGAGAVCSAGVAVTTHTHGESARGLRISRDIRTAAAGRPFETEVDD | soluble
14 | GPGSMIQSDIVSYVGEMGDVPDALLITPLKDRKSSVYLTKYEVARIIGERARQIVNGTSVLLDSQNGCGTGNSLELAEGCADPFAASVDPIHITKLELLQGRIPMIVRRTWPDGRTENIPVNELKVDKMLLDVQH | not soluble
15 | GPGSMKERYDPLPPQLETYLRLIPPTSGAASGKADGDKKTGPRRSDDDPMSFYCTSFLMSREWDVQKAFAMMQEVVAYRAVNHLDEQSHFPPAFSVRGWSTEDVCRALERSPRKVGERIDRVCAGVAQGLICGIHYWDKNGRPVFYMVIDSFDEAELMRQLKQMASVGKSHVDVMWEYMVHVLSVTESLVLYQLIQRGAPLSGRPLTSKTTDEEAPAWDLSEGAVTMVYDMKRLTLKMLWKPIIDMFCDNSKTFFNYYPDRIHRIVCVNSPSLVRYAFLLVRGVLPAAFQRKISFVSPHDTLATLETMIDRKYIPHFLGGDCRCEAHDGECLSGYDPRQTGRTRRTVARTDASSEGNDEAPTVYVKLAAGHECTRVFPVNASEVVVWEFAVEGGGHDIIFTTFFVPQSAASGMQWTQVELSKLSSYMVTSEALAKGSDAFAVAEDGVVVLKWHNRRHWFASKRLQLRAYKEGAPSTLHGQASHPE | not soluble
16 | GPGSMKPATIPHGKNDAEGAGARMYEGMNTLQKEELNDYLISQMGPGTKWHDEMSDVVNTIIRQRSINGEPLDVHDVLSEALPHCQLAISHEVRDGLFRRIAGMCTTTDV | soluble
17 | GPGSMKTENFPRGQSAGPEGSLVEIPDHGERQQEVCHIGAPLQREIEAPAAEAGQSSDYKKPHAPHLLPVMEPVKPSSDPQLKDGRKEMPFTSALPIVVPDAPRLATQQRQVQKTKGNGSSAVPGEPDTCEGEPRAPSPGDPRPTQAFPAVEPFKRTASAKLSEARTDPRSPSASPDNESDGARVGSRQVDEEGSRPLCTLPAVELRKKPAGSTLQEEQAKELNTTHAFPVVEPDAVCTEARRSEELEDTRAGHAFPPVASGKQNTGA | soluble
18 | GPGSMLDFLEQLQQLASVYAICGNAVSVMAGMSDTAEELTFRSYDSLEGASYICNLNEKALHTAKASLCDNADWSSFFREVQLAFNSGRVTVQPGNAHRVAVNAAAPVSADSKGLACSMEVHCLSGSGEKCATFVLERTTEDQQKYILESMLQAHHMYNHPKEYEQKLLHIMEAKEIACTKREALDRELVALNDNLTRNKHKQKINNERKEELLKKLGGYSTENTGNPWQAIQEQQQRTAGENTKSRLPSPLGNRTCKDFDLVLFRMIKSRWLSPEQCDASSPANRVVQPYSKEDLAIQVSQLSGSRAAIWKALDSIDSWSYRVFDVQAAMSGDDYLSLSTQTHGGSLLITMYALLCMHDFLQKFKIDEQIALNWISAVEASYHGNPYHNSMHAADVLQITDFIITQGGLAKRCDLSDIQVFSALLAASIHDFDHPGINNNFHIKTGSYLATLYNDRSVLENLHVSSVFELMKNPAFNILASFSDEQHHEVRETMIEMVLATDMGSHGKYVASLKGKMQEHSSFTQTAEQNLCLAIALKMADISNCGRPLDIYLRWGAKVSDEFYQQGDRERNLGLECSPFMDRLQPSLAKSQIAFMNYIITPFFEQVAELLPDMRFAVALVEENKAYWANHDDS | soluble
19 | GPGSMLRRQLHLSAIGGVSAAAAAVLDGIGPSSAAAATGTLSSSSTSLSVMASVSPLLMPCRGVKLVNPIGKQGSQHYGLEPKLEAGRDTQLKHTEMYDGYTDDFGVFKEGPPVTLRLEYVRSPDHGYSQHILQKDIWSPFQVGANMMSYTPLYYDWKGFSSRDYFGHRSGTNPGSKVLLGHYRRDEVRSWGYRIMVNHKPQKRIPKWLACVVHIPRKKTFLGFFLYANGAYVAELLTYKQLPRIIYNKAFQGCLPTIGQTVSLTEVTYGKEIHSVEMYPGHGGVICRASGTAAVVLRGSEPNLVPLLLPSKEVRLFDNMCHAVFGRRAGVMYNKQRNFSKRSVEENMPHRPKVHSKTKRVSSHPAGGGNGGSPNLLTPLDWRIHPRNCVKTKYWLSGYILRGRQYNRNQTVADLKSKTYSWANRDPVYR | not soluble
